Laboratory results: patent publication US20190077860A1 (EISAI R AND D MANAGEMENT, published 2019)
Where a chain is given by its changes, count along the chain named. Blank lines part the entries; values can stand above or below the binder they belong to.

Columns and labels:
Test in all cases: ELISA
[1] = biological target: T1, human EphA5 extracellular region-SEAP-His protein (human, UniProt P54756 25-573)
T1 construct: extracellular domain; also called hEphA5-SEAP-His

[2] = biological target: T2, human EphB6 extracellular region-SEAP-His protein (human, UniProt O15197 32-594)
T2 construct: extracellular domain; also called hEphB6-SEAP-His
T2 sequence (looked up): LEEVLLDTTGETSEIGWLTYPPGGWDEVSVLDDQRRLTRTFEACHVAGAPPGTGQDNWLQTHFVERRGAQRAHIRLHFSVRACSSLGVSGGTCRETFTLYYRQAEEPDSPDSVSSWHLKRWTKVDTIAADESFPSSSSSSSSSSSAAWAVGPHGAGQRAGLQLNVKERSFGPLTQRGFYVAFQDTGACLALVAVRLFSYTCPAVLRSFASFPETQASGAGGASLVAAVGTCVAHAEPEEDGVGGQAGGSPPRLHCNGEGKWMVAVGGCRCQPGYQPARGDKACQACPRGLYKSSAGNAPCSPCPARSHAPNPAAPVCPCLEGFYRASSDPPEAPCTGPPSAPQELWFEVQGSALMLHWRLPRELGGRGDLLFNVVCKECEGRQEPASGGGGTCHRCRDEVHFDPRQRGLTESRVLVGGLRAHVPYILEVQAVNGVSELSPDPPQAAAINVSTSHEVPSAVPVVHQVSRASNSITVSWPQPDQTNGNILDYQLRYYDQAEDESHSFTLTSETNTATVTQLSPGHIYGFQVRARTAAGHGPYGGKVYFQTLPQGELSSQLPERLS

[3] = biological target: T3, human EphB2 extracellular region-SEAP-His protein (human, UniProt P29323 19-543)
T3 construct: extracellular domain; also called hEphB2-SEAP-His
T3 sequence (looked up): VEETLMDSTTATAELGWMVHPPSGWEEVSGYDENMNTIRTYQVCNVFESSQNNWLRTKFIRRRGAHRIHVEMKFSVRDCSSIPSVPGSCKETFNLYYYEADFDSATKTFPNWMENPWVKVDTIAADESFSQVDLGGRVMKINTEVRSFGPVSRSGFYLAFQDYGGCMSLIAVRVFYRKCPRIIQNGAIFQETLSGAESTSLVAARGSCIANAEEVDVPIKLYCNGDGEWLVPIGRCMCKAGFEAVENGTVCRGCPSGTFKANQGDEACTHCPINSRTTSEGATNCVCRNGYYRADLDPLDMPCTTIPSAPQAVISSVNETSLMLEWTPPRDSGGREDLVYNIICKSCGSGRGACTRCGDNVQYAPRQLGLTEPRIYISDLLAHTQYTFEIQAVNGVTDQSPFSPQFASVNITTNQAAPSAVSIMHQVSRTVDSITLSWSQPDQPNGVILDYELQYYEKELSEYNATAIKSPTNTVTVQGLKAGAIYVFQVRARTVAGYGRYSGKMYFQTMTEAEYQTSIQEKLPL

[4] = biological target: T4, human EphB3 extracellular region-SEAP-His protein (human, UniProt P54753 34-559)
T4 construct: extracellular domain; also called hEphB3-SEAP-His
T4 sequence (looked up): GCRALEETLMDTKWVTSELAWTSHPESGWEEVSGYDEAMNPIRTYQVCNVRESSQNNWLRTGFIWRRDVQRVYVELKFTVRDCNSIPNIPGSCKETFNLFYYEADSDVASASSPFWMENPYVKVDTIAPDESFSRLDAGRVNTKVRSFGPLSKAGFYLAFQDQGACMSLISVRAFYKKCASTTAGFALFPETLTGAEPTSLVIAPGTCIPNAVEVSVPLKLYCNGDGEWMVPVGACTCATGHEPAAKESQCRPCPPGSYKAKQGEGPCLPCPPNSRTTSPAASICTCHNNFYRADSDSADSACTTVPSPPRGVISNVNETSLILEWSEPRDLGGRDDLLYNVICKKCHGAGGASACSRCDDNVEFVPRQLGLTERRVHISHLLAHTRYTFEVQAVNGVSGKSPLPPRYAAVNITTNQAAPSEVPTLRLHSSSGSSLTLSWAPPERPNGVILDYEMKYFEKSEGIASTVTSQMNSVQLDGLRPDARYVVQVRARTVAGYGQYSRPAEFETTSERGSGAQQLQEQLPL

[5] = biological target: T5, human EphA6 extracellular region-SEAP-His protein (human, UniProt Q9UF33 23-550)
T5 construct: extracellular domain; also called hEphA6-SEAP-His
T5 sequence (looked up): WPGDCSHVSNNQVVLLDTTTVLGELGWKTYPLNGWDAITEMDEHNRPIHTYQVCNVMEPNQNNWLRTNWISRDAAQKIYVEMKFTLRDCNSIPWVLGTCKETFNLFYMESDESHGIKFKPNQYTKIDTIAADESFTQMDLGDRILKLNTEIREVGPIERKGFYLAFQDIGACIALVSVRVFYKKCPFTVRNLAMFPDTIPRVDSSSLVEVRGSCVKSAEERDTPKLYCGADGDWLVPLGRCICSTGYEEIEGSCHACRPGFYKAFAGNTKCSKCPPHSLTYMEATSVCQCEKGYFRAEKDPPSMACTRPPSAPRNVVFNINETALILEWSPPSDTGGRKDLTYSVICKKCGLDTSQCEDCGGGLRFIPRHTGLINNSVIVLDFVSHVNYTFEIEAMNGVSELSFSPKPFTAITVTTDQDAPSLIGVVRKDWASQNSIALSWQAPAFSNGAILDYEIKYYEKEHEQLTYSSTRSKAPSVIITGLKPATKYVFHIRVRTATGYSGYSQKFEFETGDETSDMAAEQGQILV

T1 sequence (P54756 25-573): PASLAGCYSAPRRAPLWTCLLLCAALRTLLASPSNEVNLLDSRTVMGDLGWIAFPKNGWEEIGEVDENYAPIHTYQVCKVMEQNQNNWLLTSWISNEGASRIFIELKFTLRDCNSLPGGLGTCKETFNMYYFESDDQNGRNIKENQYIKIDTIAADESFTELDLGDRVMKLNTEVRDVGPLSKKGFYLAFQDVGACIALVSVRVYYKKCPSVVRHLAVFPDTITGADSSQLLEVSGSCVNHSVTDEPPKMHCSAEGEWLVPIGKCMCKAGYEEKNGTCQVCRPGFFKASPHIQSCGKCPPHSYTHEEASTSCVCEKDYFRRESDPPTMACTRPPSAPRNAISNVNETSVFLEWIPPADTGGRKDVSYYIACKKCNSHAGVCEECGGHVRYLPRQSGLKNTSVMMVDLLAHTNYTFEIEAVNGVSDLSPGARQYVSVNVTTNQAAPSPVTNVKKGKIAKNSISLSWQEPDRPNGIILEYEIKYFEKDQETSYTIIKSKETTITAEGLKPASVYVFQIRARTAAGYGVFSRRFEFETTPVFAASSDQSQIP

A450 as % of hEphA4-SEAP-His [1]: 6.5%
A450 as % of hEphA4-SEAP-His [2]: 6.2%
A450 as % of hEphA4-SEAP-His [3]: 6.2%
A450 as % of hEphA4-SEAP-His [4]: 6.2%
A450 as % of hEphA4-SEAP-His [5]: 8.7%
B1: humanized antibody No. 160 (antibody, human IgG2)
heavy: QIQLVQSGSELKKPGASVKVSCKASGYTFTDYSMHWVRQAPGQGLKWMGWINTETGEPTYADDFKGRFVFSLDTSVSTAYLQISSLKAEDTAVYYCARIPLYYYGSRYWYFDVWGQGTTVTVSSASTKGPSVFPLAPSSRSTSESTAALGCLVKDYFPEPVTVSWNSGALTSGVHTFPAVLQSSGLYSLSSVVTVPSSNFGTQTYTCNVDHKPSNTKVDKTVERKSCVECPPCPAPPAAAPSVFLFPPKPKDTLMISRTPEVTCVVVDVSHEDPEVQFNWYVDGVEVHNAKTKPREEQFNSTFRVVSVLTVVHQDWLNGKEYKCKVSNKGLPAPIEKTISKTKGQPREPQVYTLPPSREEMTKNQVSLTCLVKGFYPSDIAVEWESNGQPENNYKTTPPMLDSDGSFFLYSKLTVDKSRWQQGNVFSCSVMHEALHNHYTQKSLSLSPG
light: DIQMTQSPSSLSASVGDRVTITCRASENIYRNLAWYQQKPGKAPQLLLYAATNLADGVPSRFSGSGSGTDYTLTISSLQPEDFATYYCQHFWGTPWTFGQGTKVEIKRTVAAPSVFIFPPSDEQLKSGTASVVCLLNNFYPREAKVQWKVDNALQSGNSQESVTEQDSKDSTYSLSSTLTLSKADYEKHKVYACEVTHQGLSSPVTKSFNRGEC
notes: human Ig kappa; also called L1-6/HK4

A450 as % of hEphA4-SEAP-His [1]: 6.3%
A450 as % of hEphA4-SEAP-His [2]: 6.4%
A450 as % of hEphA4-SEAP-His [3]: 6.2%
A450 as % of hEphA4-SEAP-His [4]: 6.2%
A450 as % of hEphA4-SEAP-His [5]: 8.4%
B2: humanized antibody No. 154 (antibody, human IgG2)
heavy: B1 heavy with I2V, K46E
light: B1 light with Q45K, P80S
notes: human Ig kappa; also called L1-5/HK1

A450 as % of hEphA4-SEAP-His [1]: 5.8%
A450 as % of hEphA4-SEAP-His [2]: 5.9%
A450 as % of hEphA4-SEAP-His [3]: 5.8%
A450 as % of hEphA4-SEAP-His [4]: 6%
A450 as % of hEphA4-SEAP-His [5]: 8.3%
B3: humanized antibody No. 152 (antibody, human IgG2)
heavy: B1 heavy with I2V, K46E, D62Q, D63G, K65T
light: B1 light with Q45K, P80S
notes: human Ig kappa; also called L1-5/HA1

A450 as % of hEphA4-SEAP-His [1]: 6.7%
A450 as % of hEphA4-SEAP-His [2]: 6.3%
A450 as % of hEphA4-SEAP-His [3]: 6.3%
A450 as % of hEphA4-SEAP-His [4]: 6.5%
A450 as % of hEphA4-SEAP-His [5]: 10%
B4: humanized antibody No. 158 (antibody, human IgG2)
heavy: B1 heavy with I2V, D62Q, D63G, K65T
light: B1 light
notes: human Ig kappa; also called L1-6/HA2

A450 as % of hEphA4-SEAP-His [1]: 7%
A450 as % of hEphA4-SEAP-His [2]: 7.1%
A450 as % of hEphA4-SEAP-His [3]: 7%
A450 as % of hEphA4-SEAP-His [4]: 7.3%
A450 as % of hEphA4-SEAP-His [5]: 9.9%
B5: humanized antibody No. 151 (antibody, human IgG2)
heavy: B1 heavy with D62Q, D63G, K65T
light: B1 light with Q45K, P80S
notes: human Ig kappa; also called L1-5/HA4

A450 as % of hEphA4-SEAP-His [1]: 6.1%
A450 as % of hEphA4-SEAP-His [2]: 5.6%
A450 as % of hEphA4-SEAP-His [3]: 5.8%
A450 as % of hEphA4-SEAP-His [4]: 5.9%
A450 as % of hEphA4-SEAP-His [5]: 9.9%
B6: humanized antibody No. 143 (antibody, human IgG2)
heavy: B1 heavy
light: B1 light with Q45K, L48V
notes: human Ig kappa; also called L1-4/HK4

A450 as % of hEphA4-SEAP-His [1]: 6.1%
A450 as % of hEphA4-SEAP-His [2]: 6.2%
A450 as % of hEphA4-SEAP-His [3]: 5.9%
A450 as % of hEphA4-SEAP-His [4]: 5.9%
A450 as % of hEphA4-SEAP-His [5]: 8.7%
B7: humanized antibody No. 153 (antibody, human IgG2)
heavy: B1 heavy with I2V, D62Q, D63G, K65T
light: B1 light with Q45K, P80S
notes: human Ig kappa; also called L1-5/HA2
